Changes are numbered by the printed parent chain. Names and notes keep the numbering of the source.
B1: anti-CD3 antibody mutant VH-Y61C (antibody, V domains shown)
VH: EVQLVESGGGLVQPGGSLRLSCAASGFTFSTYAMNWVRQAPGKGLEWVGRIRSKYNNYATCYADSVKDRFTISRDDSKNSLYLQMNSLKTEDTAVYYCARHGNFGNSYVSWFAYWGQGTLVTVSS
VL: QTVVTQEPSLTVSPGGTVTLTCRSSTGAVTTSNYANWVQQKPGQAPRGLIGGTNKRAPGVPARFSGSLLGDKAALTLLGAQPEDEAEYFCALWYSNLWVFGGGTKLTVL
notes: Cys point mutant of the humanized anti-CD3 antibody; also called VH-61
B2: CD3 antibody VH-Y61C conjugated through the cleavable linker peptide with R1 = PEG5K (Table 3) (antibody, V domains shown)
VH: B1 VH
VL: B1 VL
modifications: Cys 61 conjugated with cleavable linker peptide P carrying blocker PEG5K
notes: also called VH-61 Y61C PEG5K
B3: CD3 antibody VH-Y61C conjugated through the cleavable linker peptide with R1 = PEG40K (Table 3) (antibody, V domains shown)
VH: B1 VH
VL: B1 VL
modifications: Cys 61 conjugated with cleavable linker peptide P carrying blocker PEG40K
notes: also called VH-61 Y61C PEG40K
B4: CD3 antibody VH-Y61C conjugated through the cleavable linker peptide with R1 = PEG10K (Table 3) (antibody, V domains shown)
VH: B1 VH
VL: B1 VL
modifications: Cys 61 conjugated with cleavable linker peptide P carrying blocker PEG10K
notes: also called VH-61 Y61C PEG10K
B5: CD3 antibody VH-Y61C PEG40K conjugate after activation (Table 3) (antibody, V domains shown)
VH: B1 VH
VL: B1 VL
modifications: Cys 61: PEG40K blocker released by activation (cleavage of the linker peptide); what remains on Cys 61 is not stated
B6: CD3 antibody VH-Y61C PEG20K conjugate after activation (Table 3) (antibody, V domains shown)
VH: B1 VH
VL: B1 VL
modifications: Cys 61: PEG20K blocker released by activation (cleavage of the linker peptide); what remains on Cys 61 is not stated
B7: CD3 antibody VH-Y61C conjugated through the cleavable linker peptide with R1 = PEG20K (Table 3) (antibody, V domains shown)
VH: B1 VH
VL: B1 VL
modifications: Cys 61 conjugated with cleavable linker peptide P carrying blocker PEG20K
notes: may be the same molecule as m19 (same value 400) or as CD3-Her2+20k; also called VH-61 Y61C PEG20K
B8: CD3 antibody VH-Y61C PEG5K conjugate after activation (Table 3) (antibody, V domains shown)
VH: B1 VH
VL: B1 VL
modifications: Cys 61: PEG5K blocker released by activation (cleavage of the linker peptide); what remains on Cys 61 is not stated
B9: anti-CD3 antibody mutant VH-Y61C conjugated with Molecule I (+20K) (antibody, V domains shown)
VH: B1 VH
VL: B1 VL
modifications: Cys 61 conjugated with Molecule I (+20K)
notes: also called VH-61 Y61 (+20K)
B10: CD3 antibody VH-Y61C PEG10K conjugate after activation (Table 3) (antibody, V domains shown)
VH: B1 VH
VL: B1 VL
modifications: Cys 61: PEG10K blocker released by activation (cleavage of the linker peptide); what remains on Cys 61 is not stated
B11: anti-CD3 antibody mutant VH-W111C conjugated with Molecule I (+20K) (antibody, V domains shown)
VH: B1 VH with C61Y, W111C
VL: B1 VL
modifications: Cys 111 conjugated with Molecule I (+20K)
notes: also called VH-111 W111 (+20K)
B12: anti-CD3 antibody mutant VH-M34C (antibody, V domains shown)
VH: B1 VH with M34C, C61Y
VL: B1 VL
notes: Cys point mutant of the humanized anti-CD3 antibody; also called VH-34
B13: anti-CD3 antibody mutant VH-F104C (antibody, V domains shown)
VH: B1 VH with C61Y, F104C
VL: B1 VL
notes: Cys point mutant of the humanized anti-CD3 antibody; also called VH-104
B14: anti-CD3 antibody mutant VL-Y94C conjugated with Molecule I (+20K) (antibody, V domains shown)
VH: B1 VH with C61Y
VL: B1 VL with Y94C
modifications: Cys 94 conjugated with Molecule I (+20K)
notes: also called VL-94 Y94 (+20K)
B15: anti-CD3 antibody mutant VL-N54C conjugated with Molecule I (+20K) (antibody, V domains shown)
VH: B1 VH with C61Y
VL: B1 VL with N54C
modifications: Cys 54 conjugated with Molecule I (+20K)
notes: also called VL-54 N54 (+20K)
B16: anti-CD3 antibody mutant VL-N54C (antibody, V domains shown)
VH: B1 VH with C61Y
VL: B1 VL with N54C
notes: Cys point mutant of the humanized anti-CD3 antibody; also called VL-54
B17: anti-CD3 antibody mutant VL-R56C (antibody, V domains shown)
VH: B1 VH with C61Y
VL: B1 VL with R56C
notes: Cys point mutant of the humanized anti-CD3 antibody; also called VL-56
B18: anti-CD3 antibody mutant VL-K55C (antibody, V domains shown)
VH: B1 VH with C61Y
VL: B1 VL with K55C
notes: Cys point mutant of the humanized anti-CD3 antibody; also called VL-55
B19: anti-CD3 antibody mutant VL-W93C conjugated with Molecule I (+20K) (antibody, V domains shown)
VH: B1 VH with C61Y
VL: B1 VL with W93C
modifications: Cys 93 conjugated with Molecule I (+20K)
notes: also called VL-93 W93 (+20K)
B20: anti-CD3 antibody mutant VL-Y94C (antibody, V domains shown)
VH: B1 VH with C61Y
VL: B1 VL with Y94C
notes: Cys point mutant of the humanized anti-CD3 antibody; also called VL-94
B21: anti-CD3 antibody mutant VL-W93C (antibody, V domains shown)
VH: B1 VH with C61Y
VL: B1 VL with W93C
notes: Cys point mutant of the humanized anti-CD3 antibody; also called VL-93
B22: anti-CD3 antibody mutant VH-S53C conjugated with Molecule I (+20K) (antibody, V domains shown)
VH: B1 VH with S53C, C61Y
VL: B1 VL
modifications: Cys 53 conjugated with Molecule I (+20K)
notes: also called VH-53 S53 (+20K)
B23: anti-CD3 antibody mutant VH-M34C conjugated with Molecule I (+20K) (antibody, V domains shown)
VH: B1 VH with M34C, C61Y
VL: B1 VL
modifications: Cys 34 conjugated with Molecule I (+20K)
notes: also called VH-34 M34 (+20K)
B24: anti-CD3 antibody mutant VL-Y34C (antibody, V domains shown)
VH: B1 VH with C61Y
VL: B1 VL with Y34C
notes: Cys point mutant of the humanized anti-CD3 antibody; also called VL-34
B25: anti-CD3 antibody mutant VH-D68C (antibody, V domains shown)
VH: B1 VH with C61Y, D68C
VL: B1 VL
notes: Cys point mutant of the humanized anti-CD3 antibody; also called VH-68
B26: anti-CD3 antibody mutant VH-F112C conjugated with Molecule I (+20K) (antibody, V domains shown)
VH: B1 VH with C61Y, F112C
VL: B1 VL
modifications: Cys 112 conjugated with Molecule I (+20K)
notes: also called VH-112 F112 (+20K)
B27: anti-CD3 antibody mutant VH-S53C (antibody, V domains shown)
VH: B1 VH with S53C, C61Y
VL: B1 VL
notes: Cys point mutant of the humanized anti-CD3 antibody; also called VH-53
B28: anti-CD3 antibody mutant VH-F104C conjugated with Molecule I (+20K) (antibody, V domains shown)
VH: B1 VH with C61Y, F104C
VL: B1 VL
modifications: Cys 104 conjugated with Molecule I (+20K)
notes: also called VH-104 F104 (+20K)
B29: anti-CD3 antibody mutant VL-N96C (antibody, V domains shown)
VH: B1 VH with C61Y
VL: B1 VL with N96C
notes: Cys point mutant of the humanized anti-CD3 antibody; also called VL-96
B30: anti-CD3 antibody mutant VH-F112C (antibody, V domains shown)
VH: B1 VH with C61Y, F112C
VL: B1 VL
notes: Cys point mutant of the humanized anti-CD3 antibody; also called VH-112
B31: anti-CD3 antibody mutant VL-N96C conjugated with Molecule I (+20K) (antibody, V domains shown)
VH: B1 VH with C61Y
VL: B1 VL with N96C
modifications: Cys 96 conjugated with Molecule I (+20K)
notes: also called VL-96 N96 (+20K)
B32: anti-CD3 antibody mutant VL-K55C conjugated with Molecule I (+20K) (antibody, V domains shown)
VH: B1 VH with C61Y
VL: B1 VL with K55C
modifications: Cys 55 conjugated with Molecule I (+20K)
notes: also called VL-55 K55 (+20K)
B33: anti-CD3 antibody mutant VL-Y34C conjugated with Molecule I (+20K) (antibody, V domains shown)
VH: B1 VH with C61Y
VL: B1 VL with Y34C
modifications: Cys 34 conjugated with Molecule I (+20K)
notes: also called VL-34 Y34 (+20K)
B34: anti-CD3 antibody mutant VL-R56C conjugated with Molecule I (+20K) (antibody, V domains shown)
VH: B1 VH with C61Y
VL: B1 VL with R56C
modifications: Cys 56 conjugated with Molecule I (+20K)
notes: also called VL-56 R56 (+20K)
B35: anti-CD3 antibody mutant VH-W111C (antibody, V domains shown)
VH: B1 VH with C61Y, W111C
VL: B1 VL
notes: Cys point mutant of the humanized anti-CD3 antibody; also called VH-111
B36: anti-CD3 antibody mutant VH-D68C conjugated with Molecule I (+20K) (antibody, V domains shown)
VH: B1 VH with C61Y, D68C
VL: B1 VL
modifications: Cys 68 conjugated with Molecule I (+20K)
notes: also called VH-68 D68 (+20K)

Assays:
[1] = biological target: T1, CD3 (antigen of the anti-CD3 antibody, coated in the ELISA of Examples 1-3) (Homo sapiens (Human), UniProt P07766 23-126); experiment: ELISA, coated antigen, anti-human IgG-HRP; reference wild-type antibody
T1 construct: also called antibody antigen
Procedure: (§1) In the present invention, the activity of each mutant with a point mutation compared to that of its initial antibody is detected by ELISA. Specifically, the 96-well plates were coated with antibody antigen overnight, then blocked with 1% BSA blocking agent (Thermo Fisher) at 37° C. for 2 hours, and washed with PBST for 3 times. The corresponding antibody or the corresponding mutant was added for binding at 37° C. for 1 hour, and then washed with PBST for 3 times. HRP enzyme-linked anti-human IgG was added for binding at 37° C. for 1 hour, and washed with PBST for 3 times. TMB substrate (Solarbio., Inc.) was used to detect absorbance at 450 nm. The effect on mutant binding strength was calculated through EC50 mutation/EC50 wild-type.
According to the above method, the binding activity of anti-CD3 antibody SP34 mutant with mutations at different position shown in Table 1 was detected.

[2] = biological target: T1, CD3 (antigen of the anti-CD3 antibody, …); experiment: binding activity after conjugation with different R1; method not described (presumably ELISA)
[3] = biological target: T1, CD3 (antigen of the anti-CD3 antibody, …); experiment: binding activity after activation of the conjugate; method not described
[4] = biological target: T1, CD3 (antigen of the anti-CD3 antibody, …); experiment: binding activity of the conjugated mutant compared with the wild-type antibody (ELISA as in Example 1)
Procedure: as §1

T1 sequence (P07766 23-126 limits assumed, form in doubt): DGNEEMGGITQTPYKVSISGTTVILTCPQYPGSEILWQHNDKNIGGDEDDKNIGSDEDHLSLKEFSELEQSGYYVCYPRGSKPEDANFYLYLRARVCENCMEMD

Binder | Binding strength of mutants (EC50 mutant/EC50 wild-type) [1] [fold] | Blocking fold after conjugation (+20K) [4] [fold] | also measured
B1 | 5.1 |  | 
B2 |  |  | Blocking fold after conjugation [2]: 10 fold
B3 |  |  | Blocking fold after conjugation [2]: 500 fold
B4 |  |  | Blocking fold after conjugation [2]: 20 fold
B5 |  |  | Recovery of binding force after activation (%) [3]: 100%
B6 |  |  | Recovery of binding force after activation (%) [3]: 100%
B7 |  |  | Blocking fold after conjugation [2]: 400 fold
B8 |  |  | Recovery of binding force after activation (%) [3]: 100%
B9 |  | 400 | 
B10 |  |  | Recovery of binding force after activation (%) [3]: 100%
B11 |  | 6 | 
B12 | 1.1 |  | 
B13 | 1 |  | 
B14 |  | 30 | 
B15 |  | 12 | 
B16 | 1 |  | 
B17 | 1.5 |  | 
B18 | 0.9 |  | 

Binder | Binding strength of mutants (EC50 mutant/EC50 wild-type) [1] [fold] | Blocking fold after conjugation (+20K) [4] [fold] | also measured
B19 |  | 5 | 
B20 | 1 |  | 
B21 | 1.8 |  | 
B22 |  | 3 | 
B23 |  | 5 | 
B24 | 1.2 |  | 
B25 | 2 |  | 
B26 |  | 4 | 
B27 | 1.2 |  | 
B28 |  | 13 | 
B29 | 1 |  | 
B30 | 1.2 |  | 
B31 |  | 2 | 
B32 |  | 5 | 
B33 |  | 8 | 
B34 |  | 6 | 
B35 | 2 |  | 
B36 |  | 4 | 
